Measurements from patent US20080213252A1, “METHODS OF TREATING ITCH” (priority 2007, published 2008).

B1: papain: crystallized papain from Sigma, control cysteine protease (protein)
chain: IPEYVDWRQKGAVTPVKNQGSCGSCWAFSAVVTIEGIIKIRTGNLNEYSEQELLDCDRRSYGCNGGYPWSALQLVAQYGIHYRNTYPYEGVQRYCRSREKGPYAAKTDGVRQVQPYNEGALLYSIANQPVSVVLEAAGKDFQLYRGGIFVGPCGNKVDHAVAAVGYGPNYILIKNSWGTGWGENGYIRIKRGTGNSYGVCGLYTSSFYPVKN
B2: recombinant mucunain: M. pruriens cysteine protease expressed in E. coli, refolded and activated (protein)
chain: DNLPESVDWRNESAVLPVKDQGNCGSCWAFSTIGAVEGINKIVTGDLISLSEQELVDCDTSYNQGCNGGLMDYAYEFIINNGGIDSEEDYPYRAVDGTCDQYRKNAKVVTIDSYEDVPANDELALKKAVANQPVSVAIEGGGREFQLYVSGVFTGRCGTALDHGVVAVGYGSVKGHDYWIVRNSWGASWGEEGYVRLERNLAKSRSGKCGIAIEPSYPIKNGANPPNPGPSPPSPVKPPNVCDNSYSCSDSATCCCIFEFQKYCMVWGCCPLEAATCCDDHYSCCPHEYPICNVRAGTCLKGKNNPFGVKALRRTPAKPHWAFGGKNKVNSA
B3: mucunain: cysteine protease, itch-inducing component of spicules from M. pruriens (cowhage) (protein)
chain: B2 chain

Experiments:
skin of volunteers = test: Psychophysics: itch sensation after insertion of native or reconstituted cowhage spicules into skin; type: in vivo; conditions: human volunteers; autoclaved spicules soaked in the substance and dried
Protocol: Reconstitution of spicules—Native spicules were inactivated by autoclaving for 1 hour and reconstituted with native and recombinant mucunains in the presence or absence of cysteine protease inhibitor, E64. Typically, 50 mg of inactivated spicules were mixed with 0.4 ml of 28 μM mucunain in a 2 ml microfuge tube, vortexed, and dried in a Speed-vac for 2 hours at room temperature. These spicules were then considered as ‘reconstituted’ with the protease alone. Spicules prepared in a similar manner but with E64 added at twice the concentration of mucunain, are considered reconstituted with the protease and the inhibitor.
Psychophysics—These protocols were approved by the Yale University Human Investigation Committee. A row of 10 cowhage spicules were lightly pasted to the flattened end of a Weck-Cel surgical strip, spaced at 1 mm, and applied parallel to the surface of the skin at the mid-volar forearm. […] Every 30 sec, subjects rated the magnitude of each of three qualities of sensation: Itch, pricking/stinging, and burning using the Generalized Labeled Magnitude Scale (Bartoshuk et al. 2004) that employs appropriately placed intensity descriptors of “none”, “barely detectable”, “weak”, “moderate”, “strong”, “very strong” and, at the top of the scale, “the strongest sensation imaginable.” Voltages derived from each subject's movements of a computer mouse that controlled a cursor on a visual representation of this scale were converted to numbers between 0 and 100 and plotted for each quality at successive intervals of 30 s up to 20 min after the insertion of cowhage. […]
The sensory effects of mucunain was further analyzed. […] 50 mg of the inactivated, dried spicules were then soaked in 0.05 ml of the filtered extract containing 0.07 mg of cysteine protease (as determined by non-interfering protein assay) with or without 3.5 micrograms of E-64. […]

PAR4 = test: PAR activation by cytoplasmic calcium release, ratiometric Fura-2 imaging, PAR4 transfected HeLa cells; type: cell-based, human; conditions: Fura-2 340:380 ratiometric imaging
Protocol: PAR activation observed by cytoplasmic calcium release—The four human PAR cDNAs were obtained from commercial sources and cloned into the pcDNA3.1 (−) vector (Invitrogen). HeLa cells were transfected with 10 μg of vector cDNA using Lipofectamine 2000 (Invitrogen) and cultured for two days in 96-well glass bottom plates at 30,000 cells/well. Cells were loaded with Fura-2 as follows. The medium was aspirated and replaced with 100 μl of complete DMEM containing 2 μM Fura-2 (Invitrogen) and kept at room temperature in the dark for 1 hr. The medium was again aspirated and each well received 90 μl of HEPES buffered saline (20 mM HEPES, 115 mM NaCl, 5.4 mM KCl, 2 mM CaCl2, 0.8 mM MgCl2, 13.8 mM glucose, pH 7.4). Plates were observed using a Zeiss Axiovert 200M microscope equipped with a filter wheel for monitoring excitation at 340 and 380 nm. Axiovision software, version 4.6 was used to analyze ratiometric calcium imaging of the cells. Ten μl of protease was applied approximately 20 seconds after the start of excitation. Images were taken every 5 seconds, beginning at time zero, for 3 minutes. The software was used to analyze the 37 images taken during each 3-minute period.

casein = conditions: 12.5% native casein-zymogram gel, 0.1 μg of each mucunain
Protocol: Zymogram—The zymogram of native and recombinant mucunain was carried out using a 12.5% native casein-zymogram gel as recommended by the supplier (Biorad). The zymogram gel was run with 0.1 μg of each of the mucunains, renatured and developed for protease activity overnight.

[1] = native mucunain 0.9 μM, recombinant mucunain 2.7 μM; room temperature 1 hr; absorbance at 405 nm
Protocol: Chromogenic substrate assay—Native and recombinant mucunain protease activity were measured in a buffer containing 50 mM sodium acetate (pH 5.5), 2.5 mM EDTA, 2.5 mM DTT, and 250 μg/ml Z-Phe-Arg-pNA as the chromogenic substrate. After adding protease, the reaction was incubated at room temperature for 1 hr. Generation of the yellow product, p-nitroaniline, was assayed by measuring the absorbance at 405 nm. Papain served as a control cysteine protease. E64, an irreversible inhibitor of cysteine proteases, was used at a concentration of 10 M. Experiments were performed in triplicate and the error bars represent standard deviation.

| Molecule | itch evoked by substance loaded into inactivated spicules (skin of volunteers) | calcium influx in PAR4 transfected HeLa cells (PAR4) | protease activity in zymogram (casein) | cleavage of chromogenic substrate Z-FR-pNA [1] |
| --- | --- | --- | --- | --- |
| B1 | produced itch | induced calcium influx |  |  |
| B2 | did elicit itch | induced calcium influx | Protease activity was found |  |
| B3 | evoked itch and nociceptive sensations |  |  | cleaves |
